Measured values published in article PMC3923439, “Anti-inflammatory properties of a novel peptide interleukin 1 receptor antagonist” (Journal of Neuroinflammation, 2014).
One block for each molecule: values may come before it. No end group written: not given here.

Columns and labels:
AMJ2-C8 macrophages = assay: TNF-α secretion from IL-1β-activated macrophages (L929 bioassay); format: cell-based, mouse; conditions: 1.2 pM IL-1β, 24 hours; TNF-α by L929 survival with actinomycin D; hydrocortisone at 100 μM
Procedure: A murine alveolar macrophage cell line, AMJ2-C8 (American Type Culture Collection, Borås, Sweden), was routinely grown at 37°C with 5% CO2 in DMEM supplemented with 5% (vol/vol) FCS, 0.5% (v/v) 2-[4-(2-hydroxyethyl)piperazin-1-yl]ethanesulfonic acid (HEPES) (Gibco BRL), 2 mM GlutaMAX, 100 U/ml penicillin and 100 μg/ml streptomycin.
AMJ2-C8 macrophages were seeded into six-well multidishes at a density of 2.5 × 10^5 cells/well, and sIL-1RI, IL-1Ra or various concentrations of Ilantide were added to the cultures. Treatment with 100 μM hydrocortisone (Sigma-Aldrich, Brøndby, Denmark) was used as a positive control. After 10-minute incubation at 37°C, 1.2 pM IL-1β or IFN-γ (R&D Systems) was added to activate the macrophages. L929 cells were seeded onto a 96-well plate (Nunc, Roskilde, Denmark) at a density 0.2 × 10^2 cells/ml. Both cell cultures were incubated for 24 hours at 37°C. Conditioned medium from macrophages was collected and added to the L929 cell cultures together with actinomycin D (0.6 μg/well; Sigma-Aldrich). TNF-α is known to induce classic apoptosis in L929 cells in the presence of actinomycin D [12]. After 24-hour incubation at 37°C, 20 μl of 3-(4,5-dimethylthiazol-2-yl)-5-(3-carboxymethoxyphenyl)-2-(4-sulfophenyl)-2H-tetrazolium (Promega, Madison, WI, USA) were added to each well and incubated at 37°C in the dark for 45 minutes, then measured in an ELISA reader at 490 nm. To calculate the amount of TNF-α in the conditioned medium, fibroblasts were treated with standard concentrations of TNF-α (R&D Systems).

[1] = system: Cerebellar granule neurons; assay: Survival of cerebellar granule neurons induced to undergo apoptosis by low potassium; format: cell-based, rat; conditions: 5 mM KCl, survival estimated 48 hours later
Procedure: (§1) Cerebellar granule neurons (CGNs) were prepared from 7-day-old Wistar rats (from Charles River Laboratories, Sulzfeld, Germany; or from Hygind Møllegård Erik Møllegaard Hansen, Ejby, Denmark) as previously described. Briefly, the cerebella were cleared of meninges and blood vessels, roughly homogenized by chopping and trypsinized. The cells were washed in the presence of DNAse I and soybean trypsin inhibitor (Sigma-Aldrich, St Louis, MO, USA), and cellular debris was pelleted by centrifugation. The fibroblastoid mouse cell line L929 (LVN; European Collection of Cell Cultures, Porton Down, UK) was routinely grown at 37°C with 5% CO2 in DMEM supplemented with 10% (vol/vol) FCS, 2 mM GlutaMAX, 100 U/ml penicillin and 100 μg/ml streptomycin.
(§2) Cerebellar granule neurons were plated at a density of 1 × 10^5 cells/cm^2 on poly-L-lysine-coated, eight-well Permanox Lab-Tek chamber slides (Nunc) in Neurobasal-A medium supplemented with 2% (vol/vol) B27 (Gibco BRL), 0.5% (vol/vol) GlutaMAX, 100 U/ml penicillin and 100 μg/ml streptomycin. The CGN survival assay was performed as previously described. The neurite outgrowth assay was also performed as previously described.
Figure 5 Effect of Ilantide and interleukin 1 receptor antagonist on survival of cerebellar granule neurons induced to undergo apoptosis. The neurons were allowed to differentiate for 7 days in a high-potassium (40 mM) medium before apoptosis was induced by changing to a low-potassium medium (5 mM). Survival was estimated 48 hours later. (A) The effect of insulin-like growth factor 1 (IGF-1), interleukin 1 receptor antagonist (IL-1Ra) and IL-1β on cerebellar granule neuron (CGN) apoptosis induced by 5 mM KCl. (B) The effect of Ilantide-m on CGN apoptosis induced by 5 mM KCl. […] The results from at least four independent experiments are expressed as mean ± SEM with untreated cultures induced to undergo apoptosis by 5 mM KCl set at 100%. *P < 0.05 and **P < 0.01 compared with untreated cultures induced to undergo apoptosis (one-way analysis of variance followed by Newman-Keuls post hoc test).

ectodomain of IL-1RI = biological target: T1, ectodomain of IL-1RI (Homo sapiens, UniProt P14778); assay: Surface plasmon resonance binding of immobilized ligand to recombinant IL-1RI ectodomain; conditions: SPR, Biacore 2000, ligand immobilized on CM4 chip, IL-1RI ectodomain injected, 25°C
T1 construct: the recombinant ectodomain of IL-1RI (R&D Systems) was injected; purchased R&D Systems
T1 sequence (P14778 18-336 limits assumed): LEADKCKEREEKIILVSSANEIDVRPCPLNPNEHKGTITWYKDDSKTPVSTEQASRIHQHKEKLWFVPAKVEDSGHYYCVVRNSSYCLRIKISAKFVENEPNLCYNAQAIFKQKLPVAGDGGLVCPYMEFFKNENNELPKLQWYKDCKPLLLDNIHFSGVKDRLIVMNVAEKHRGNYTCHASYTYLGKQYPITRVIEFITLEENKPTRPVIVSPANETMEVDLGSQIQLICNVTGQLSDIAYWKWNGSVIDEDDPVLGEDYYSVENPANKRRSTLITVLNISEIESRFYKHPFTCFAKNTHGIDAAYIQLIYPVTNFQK
Procedure: (§3) The binding analysis was performed using a Biacore 2000 instrument (GE Healthcare Life Sciences) that contained 150 mM NaCl as running buffer at 25°C with 10 mM sodium phosphate (pH 7.4). The flow rate was 5 μl/min during immobilization. Ilantide peptide, IL-1β or IL-1Ra was immobilized on a CM4 sensor chip according to the manufacturer’s instructions, after which the recombinant ectodomain of IL-1RI (R&D Systems) was injected. The neural cell adhesion molecule (NCAM) immunoglobulin modules 1 and 2 (Ig1 and Ig2) were used as a negative control protein [9]. The data were analyzed using nonlinear curve-fitting with the manufacturer’s software.

[2] = system: double-Ig module (Ig1-Ig2) of NCAM; assay: Surface plasmon resonance, negative control protein; format: binding; conditions: SPR
Procedure: as §3

[3] = system: Cerebellar granule neurons; assay: Neurite outgrowth from cerebellar granule neurons; format: cell-based, rat; conditions: for Neurite outgrowth from CGNs: 7-day-old CGNs grown on fibroblast cells, 24 hours
Procedure: as §1, §2
Figure 6 Effect of Ilantide on neurite outgrowth from cerebellar granule neurons. Cerebellar granule neuron cultures were treated with interleukin 1 receptor antagonist (IL-1Ra) (A), soluble interleukin 1 receptor type I (sIL-1RI) (B), Ilantide-t (C) or IL-1β (D) for 24 hours. The cultures were fixed and immunostained with rabbit anti-rat growth-associated protein 43 (anti-GAP-43) primary antibodies and then with secondary Alexa Fluor 488 goat anti-rabbit antibodies. (E) Effect of IL-1β on neurite outgrowth induced by IL-1Ra. (F) Effect of IL-1β on neurite outgrowth induced by Ilantide-t. The results from three to four independent experiments are expressed as percentage ± SEM with untreated controls set at 100%, corresponding to an average neurite length of 19.3 ± 4.1 μm. *P < 0.05 and **P < 0.01 compared with untreated controls (A to D) or cultures treated with either IL-1Ra or Ilantide alone (E and F) by one-way analysis of variance followed by the Newman-Keuls post hoc test).

[4] = system: HEK-Blue IL-1β cells (IL-1RI / NF-κB); assay: IL-1β-induced NF-κB activation, SEAP reporter; format: cell-based; conditions: 1.2 pM IL-1β, 24 hours, SEAP read at 600 nm, four independent experiments
Procedure: HEK-Blue IL-1β cells that contained an IL-1β-sensitive reporter (InvivoGen, San Diego, CA, USA) and HEK-Blue IL-6 cells that contained an IL-6-sensitive reporter (InvivoGen) were grown at 37°C with 5% CO2 in Dulbecco’s modified Eagle’s medium (DMEM) supplemented with 5% (vol/vol) fetal calf serum (FCS), 4.5 g/L glucose, 2 mM GlutaMAX medium, 100 U/ml penicillin, 100 μg/ml streptomycin (all obtained from Gibco BRL/Life Technologies, Taastrup, Denmark), 100 μg/ml zeocin, 200 μg/ml hygromycin and 100 μg/ml Normocin (all purchased from InvivoGen).
HEK-Blue IL-1β cells allow the monitoring of the activation of the NF-κB pathway specifically in response to IL-1β. They express a NF-κB-inducible secreted embryonic alkaline phosphatase (SEAP) reporter gene. The binding of IL-1β to its receptor IL-1RI on the surface of HEK-Blue IL-1β cells triggers a signaling cascade that leads to the activation NF-κB and the subsequent production of SEAP. HEK-Blue IL-1β cells were grown as described above. The cells were seeded onto a 96-well plate at a density 3.5 × 10^5 cells/ml. For the NF-κB activation assay, the cells were treated with 1.2 pM IL-1β alone or together with sIL-1RI, IL-1Ra or various concentrations of Ilantide. After 24 hours of incubation at 37°C, 150 μl of the cell supernatants were added to each well of a 96-well plate together with 50 μl of QUANTI-Blue (InvivoGen), incubated at 37°C for 40 minutes and measured in an enzyme-linked immunosorbent assay (ELISA) reader at 600 nm to determine the expression levels of reporter genes activated by NF-κB.

[5] = biological target: T2, recombinant ectodomain of IL-1 receptor type I (IL-1RI) (UniProt P14778 18-336); assay: SPR; Biacore 2000; about 2,500 to 3,000 RU of Ilantide-t, IL-1β or IL-1Ra immobilised on a CM4 sensor chip; IL-1RI ectodomain (or NCAM Ig1-Ig2 as negative control) injected; 25°C, 10 mM sodium phosphate pH 7.4, 150 mM NaCl; apparent Kd; conditions: both partners purified
T2 construct: interleukin 1 receptor type I, ectodomain; No catalogue number, limits or tag are printed for the bought protein; also called sIL-1RI; soluble IL-1 receptor type I; source: bought: R&D Systems
T2 sequence (looked up): T1 sequence (P14778 18-336 limits assumed)

Molecule: C[C@]12CCC(=O)C=C1CC[C@@H]1[C@@H]2[C@@H](O)C[C@@]2(C)[C@H]1CC[C@]2(O)C(=O)CO [hydrocortisone, reference compound]
- Inhibition of IL-1β-induced TNF-α secretion in macrophages (AMJ2-C8 macrophages): completely inhibited

Molecule: IGF-1: insulin-like growth factor 1, positive control [reference compound]
- CGN survival after potassium withdrawal [1]: inhibited

- k a (ectodomain of IL-1RI; 10 mM sodium phosphate pH 7.4, 150 mM NaCl): 8.56 ± 2.79 × 10^5 M^-1 s^-1
- k d (ectodomain of IL-1RI; pH 7.4): 7.53 ± 2.03 × 10^-4 s^-1
- Binding to double-Ig module of NCAM (negative control) [2]: no significant binding
Molecule: IL-1β: recombinant interleukin 1β
- Neurite outgrowth from CGNs [3]: did not have neuritogenic effects
- Effect on the neuritogenic effect of both IL-1Ra and Ilantide-t ([3]; IL-1β at 1.5 nM and 7.5 nM): significantly inhibited

B1: sIL-1RI: soluble IL-1 receptor type I (recombinant ectodomain of IL-1RI) (protein)
chain: T1 sequence (P14778 18-336 limits assumed)
- Inhibition of NF-κB activation induced by IL-1β [4]: dose-dependently inhibited
- Neurite outgrowth from CGNs [3]: significantly induced neurite outgrowth
- Inhibition of IL-1β-induced TNF-α secretion in macrophages (AMJ2-C8 macrophages): significantly inhibited

- Kd [5]: 27.5 nM
- koff [5]: 0.00269 s⁻¹
- kon [5]: 184000 M⁻¹ s⁻¹
B2: Ilantide-t (peptide)
peptide: SGRKSSKMQA
modifications: also: dendrimer of four monomers coupled to a lysine backbone
notes: ten residues from the N terminus of human IL-1 receptor antagonist (IL-1Ra); Four copies of the peptide on a lysine backbone; also called IL-1 antagonistic peptide (dendrimer form); source: synthetic peptide; bought: Schafer-N; further purified by gel filtration (Sephadex G-10)
